Non-standard residues stand in square brackets, D forms with d. No end group written: not given here. pT = C[C@@H](OP(=O)(O)O)[C@H](N)C(=O)O; pS = N[C@@H](COP(=O)(O)O)C(=O)O

Data on two molecules can be found in article PMC6431256 (Biochemistry, 2018).

The target of experiment [1] is Pin1 WW domain (Pin1WW, residues 1–41) (human, UniProt Q13526 1-41). Description: NMR titration.
For the next experiment, the target named is full-length Pin1 (human, UniProt Q13526 1-163). Description: NMR titration.
Chain of full-length Pin1 (Q13526 whole entry): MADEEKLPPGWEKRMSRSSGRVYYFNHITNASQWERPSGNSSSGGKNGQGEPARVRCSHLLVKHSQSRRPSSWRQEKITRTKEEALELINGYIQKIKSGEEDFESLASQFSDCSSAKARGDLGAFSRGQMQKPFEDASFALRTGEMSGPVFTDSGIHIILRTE

Chain of Pin1 WW domain (Pin1WW, residues 1–41) (Q13526 1-41): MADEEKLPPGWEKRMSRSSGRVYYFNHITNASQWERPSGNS

B1: histone H1.1 phosphopeptide KKAVKpSPAKAKAW (peptide)
peptide: KKAVK[pS]PAKAKAW
Take B1: the results for the Kd (in experiment [1]; with full-length Pin1) were 890 µM and 500 µM, respectively.

B2: histone H1.4 phosphopeptide KATGAApTPKKSAKW (peptide)
peptide: KATGAA[pT]PKKSAKW
Regarding B2, the Kd in experiment [1] is 111 µM; with full-length Pin1 it was 180 µM.
